# Measurements as given in article PMC2270844, “Functional role of the additional domains in inulosucrase (IslA) from Leuconostoc citreum CW28” (BMC Biochemistry, 2008).
# B1: IslA2 (Leuconostoc citreum) (protein)
# chain: DVNQPLLAQENFSGNKTEPVPDKSNKNESVKDSKVATSDELAKDSKVATSDELAKDSKVATSDELAKDSKVATSDELVKDSKVATSDELAKDSKVATSDELAKDSKVATSDELAKDSKVATSDELAKDSKVATSDELAKDSKAPTNDVSVRAEKKSSLIDSPELNVKMSEMTSVPNLISDENSKNLVNSNELINGLSKRSLEIAHQAGIDVSRLNDIQKAALNKIKLVNEDGNKYVLDNTGSDYTKNTIIDKNNPDDTTKTTHITFANLDDAIKLAQKPDPKTTIPVFNASQINNLPASIFKDAQTNKVEKMDVWDSWALQDSKTGEVYNYHGKQVVFALMGAPLVQGDTHIYMLYNNYNNAKLDGWVNAGPVFGYNAKPESQEWSGSAVVNSDDSIQLFYTRVADDWKQALATVNIKITNSENSLGIQSLQNDHILFEGDGYFYSRKDQLKPQADMFTLRDPKLIELDDGERYLTFEANTGIYDEASDQQTVNLNNYGGGLTYDVARMLGVVNNSNRALYSSTANGAIGLLKLKGDYFNPILDRLYKPLITAVGVTDEIERANIVPFNGKYYLFTDSRFNRSAADNSPMSMAPDGAMMMGFVSDSLFGDYKPLNGNGIVLVTNNSFTSRTNTYSWYTVPVKGRPDLMLVTSYMTNRGLASGTDQYSTFAPSFLLKIDGDQTHVLNTVTEQGDWVWGDDDHSIVELLALNTEDAYLTNNQKNINYSPDWSNIDGYGYPIVTNIKDVDLTFYISGILSPDSLFKNAPGRHQGARIIGSTSQYNTEKVSAIKEYTDDLNTIWYLVNLAGNNFWIKGSSLVTVPMTDSTFRNAYIVKDSDMYLDAPQGETNAKYYQSSNSYNDAYVIVGGEYKDAHGITWNLIKLNDKILWINKNSLAISFSRDLN
# notes: C-terminal truncation, last 551 residues deleted; variable region, catalytic domain and transition region kept; 102 kDa plus 16 kDa N-terminal thioredoxin fusion, His tag; E. coli TOP10, pBAD/Thio TOPO, Ni-NTA
# Substrate: OC[C@H]1O[C@@](CO)(O[C@H]2O[C@H](CO)[C@@H](O)[C@H](O)[C@H]2O)[C@@H](O)[C@@H]1O
# Test: initial sucrose consumption rate, reducing sugar (DNS) assay, Michaelis-Menten fit
# Format: biochemical, Leuconostoc citreum
# Conditions: pH 6.5 phosphate 50 mM, 30°C, 1 mM CaCl2, total Km (hydrolysis plus transglycosylation)
# Source text: initial sucrose consumption rate, reducing sugar (DNS) assay, Michaelis-Menten fit on IslA2
protein,measurement,value
B1,Km,24 mM
same,kcat,28.2 s⁻¹
same,kcat/Km,1170 M⁻¹ s⁻¹
